Experimental findings from patent US20200407442A1 (WUXI BIOLOGICS IRELAND, published 2020) are described below.

One experiment has as its target T1, Variant 5: xPro1.FL-x5 (human; mouse).
T1 construct: Chimeric full-length LAG-3 on transfected 293F cells
T1 chain: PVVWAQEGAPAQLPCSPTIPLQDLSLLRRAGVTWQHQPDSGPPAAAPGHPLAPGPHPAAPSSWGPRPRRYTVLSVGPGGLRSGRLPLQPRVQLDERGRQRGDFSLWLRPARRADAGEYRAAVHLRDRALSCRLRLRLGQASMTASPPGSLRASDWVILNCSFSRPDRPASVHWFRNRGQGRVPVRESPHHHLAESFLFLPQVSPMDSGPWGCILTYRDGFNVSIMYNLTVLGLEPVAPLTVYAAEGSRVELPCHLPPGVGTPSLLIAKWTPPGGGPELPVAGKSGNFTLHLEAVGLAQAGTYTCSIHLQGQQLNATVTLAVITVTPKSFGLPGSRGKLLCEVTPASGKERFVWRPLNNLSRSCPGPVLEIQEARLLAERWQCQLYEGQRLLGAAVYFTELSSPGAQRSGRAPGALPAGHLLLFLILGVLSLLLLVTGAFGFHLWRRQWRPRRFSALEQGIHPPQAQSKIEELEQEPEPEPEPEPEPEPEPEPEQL
In words: FACS, 1 ug/mL antibody, transfected 293F cells. As to the method:
(§1) The 10 variants were cloned into pcDNA3 vector and used for 293F cell transfection. Briefly, 293F cells were diluted to a density of 1×10⁶ cells/mL with FreeStyle 293F medium and aliquots of 3 mL/well were added to 24-well plate. Transfections were performed using 293fectin reagent (Life Technologies). For each transfection, 3 μg of DNA were diluted in 150 μOpti-MEM I-reduced serum medium (Life Technologies), and then combined with 6μL 293fectin reagent pre-diluted in 150 μL Opti-MEM I reduced serum medium. The DNA/[…] mixture was allowed to stand at 25° C. for 20 min before being added to the culture. The transfected cells were analyzed by flow cytometry at 48 h post-transfection.
(§2) Binding of antibodies to chimeric LAG-3 variants or full length human/mouse LAG-3 was analyzed by flow cytometry. Briefly, 1 μg/mL antibodies were incubated with chimeric LAG-3-expressing transfected 293F cells for 1 hour at 4° C., and then incubated with 3 μg/mL goat anti-human IgG Fc R-PE (Jackson) for 40 min at 4° C. Cells were analyzed with flow cytometer.
(In general: In flow cytometry, cells or beads pass a laser one at a time.)

A further experiment addresses T2, Variant 6: xPro1.FL-x6 (human; mouse).
T2 construct: Chimeric full-length LAG-3 on transfected 293F cells
T2 chain: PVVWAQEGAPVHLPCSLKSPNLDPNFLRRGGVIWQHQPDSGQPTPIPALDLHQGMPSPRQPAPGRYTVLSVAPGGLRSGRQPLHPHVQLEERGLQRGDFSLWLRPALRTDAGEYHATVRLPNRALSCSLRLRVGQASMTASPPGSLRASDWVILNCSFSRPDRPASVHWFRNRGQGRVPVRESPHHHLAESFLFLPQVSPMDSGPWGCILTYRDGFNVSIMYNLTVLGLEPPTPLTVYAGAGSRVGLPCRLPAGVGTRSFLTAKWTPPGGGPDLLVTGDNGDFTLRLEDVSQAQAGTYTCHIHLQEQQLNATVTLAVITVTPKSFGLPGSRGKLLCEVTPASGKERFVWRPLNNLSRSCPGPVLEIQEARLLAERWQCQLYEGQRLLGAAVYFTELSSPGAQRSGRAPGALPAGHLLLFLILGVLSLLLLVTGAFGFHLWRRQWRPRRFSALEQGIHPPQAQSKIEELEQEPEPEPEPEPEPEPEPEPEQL
The experiment in a line: FACS, 1 ug/mL antibody, transfected 293F cells. As to the method:
as §1, §2

Experiment [1] addresses T3, full-length human LAG-3 on cells (human, UniProt P18627 23-525).
T3 construct: Expressed on Flp-In-293, CHO or 293F transfectants; also called hPro1.FL; cell surface human LAG-3
T3 sequence: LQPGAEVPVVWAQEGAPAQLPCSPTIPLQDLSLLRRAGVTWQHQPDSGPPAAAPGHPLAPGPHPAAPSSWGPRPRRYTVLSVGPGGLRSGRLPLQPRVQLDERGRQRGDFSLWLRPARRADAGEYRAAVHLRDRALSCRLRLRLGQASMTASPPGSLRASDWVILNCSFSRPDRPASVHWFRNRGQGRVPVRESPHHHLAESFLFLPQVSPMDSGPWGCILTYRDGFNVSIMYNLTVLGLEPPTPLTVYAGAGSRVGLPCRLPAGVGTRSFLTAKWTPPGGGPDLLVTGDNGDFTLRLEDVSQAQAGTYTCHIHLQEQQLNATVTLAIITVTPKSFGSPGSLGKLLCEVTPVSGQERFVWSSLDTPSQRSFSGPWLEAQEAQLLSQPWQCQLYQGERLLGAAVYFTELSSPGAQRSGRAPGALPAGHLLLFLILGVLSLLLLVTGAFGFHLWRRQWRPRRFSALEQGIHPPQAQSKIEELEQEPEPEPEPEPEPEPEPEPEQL
In words: FACS, 1 ug/mL antibody, transfected 293F cells. As to the method: as §1, §2

For experiment [2], the target named is T4, human LAG-3 protein (SPR analyte) (human, UniProt P18627 30-450).
T4 sequence: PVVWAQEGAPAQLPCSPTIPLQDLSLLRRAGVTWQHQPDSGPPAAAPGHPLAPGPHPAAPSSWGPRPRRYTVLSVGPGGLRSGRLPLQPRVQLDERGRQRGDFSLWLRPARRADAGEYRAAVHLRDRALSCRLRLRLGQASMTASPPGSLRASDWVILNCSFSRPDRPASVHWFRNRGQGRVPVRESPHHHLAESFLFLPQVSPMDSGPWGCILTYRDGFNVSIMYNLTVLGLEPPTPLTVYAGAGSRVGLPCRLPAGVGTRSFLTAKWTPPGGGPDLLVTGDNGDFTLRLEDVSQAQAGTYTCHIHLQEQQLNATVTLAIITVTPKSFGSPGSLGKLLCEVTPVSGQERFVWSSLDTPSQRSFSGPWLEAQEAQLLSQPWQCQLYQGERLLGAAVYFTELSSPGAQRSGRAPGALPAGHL
In words: SPR Biacore 8K, antibody captured by anti-human Fc, LAG-3 as analyte. As for the experimental part: Antibodies were characterized for affinity and binding kinetics to human LAG-3 by SPR assay using Biacore 8K. Goat anti-human Fc was pre-immobilized to a sensor chip (CMS), and anti-LAG-3 antibodies were captured when injected to the chip. Various concentrations of human LAG-3 protein and running buffer were flowed through the sensor chip at a flow rate of 30 μL/min for an association phase of 300 s, followed by 3600 s dissociation. The association and dissociation curve was fit by 1:1 Langmuir binding model using Biacore 8K Evaluation Software.
(In general: In SPR one partner is held on a chip, and binding of the other changes the refractive index at the surface.)

B1: 1.53.3-uAb-IgG4k (antibody, V domains shown)
VH: QVQLQQWGAGLLKPSETLSLTCGVYGGSFSGYYWSWIRQPPGMGLEWIGEINHRGNTNYNPSLKSRVTISEDTSKNQFSLRLSSVTAADTAVYFCTRGEDYSDYDYYGDFWGQGTLVTVSS
VL: EIVLTQSPATLSLSQGERATLSCRASQSISSYLAWYQQKPGQAPRLLIYAASNRATGIPARFSGSGSGTDFTLTISSLEPEDFAIYYCQQRSNWPLTFGGGTKVEIK
notes: Fully human antibody from OMT rats; IgG4 kappa by its name
For the molecule B1, in the experiment with Variant 5: xPro1.FL-x5, the MFI stood at 6260 and the “PE+ %” value was 97.1%. In the experiment with Variant 6: xPro1.FL-x6, the MFI is 59.9 and the “PE+ %” value was determined as 1.86%. For the same molecule, in experiment [1], the MFI is 6540 and the “PE+ %” value amounted to 96.8%. Further, in experiment [2], the affinity, expressed as Kd, was 0.0505 nM; the koff (in general, the rate constant with which the complex falls apart) came to 3.33e-05 s⁻¹; the kon (in general, the second-order rate constant of association) was determined as 660000 M⁻¹ s⁻¹.

B2: 3.40.19-uAb-IgG4L (antibody, V domains shown)
VH: QLQLQESGPGLVKPSETLSLTCTVSGDSISSTSYYWGWIRQPPGKGLEWIGSFYYSGSTYYNPSLKSRVTISVDTSKNQFSLKLNSVTAADTAVYYCARMQLWSYDVDVWGQGTTVTVSS
VL: QSALTQPASVSGSPGQSITISCTGTSSDVGGYDYVAWYQQHPGKVPKLMIYDVSERPSGVSNRFSGSKSGNTASLTISGLQAEDEADYYCSSYTSTTTLVVFGGGTKLSVL
notes: Fully human antibody from OMT rats; IgG4 lambda by its name; also called 3.40.19-uAb-hIgG4L
Turning to B2, in the experiment with Variant 5: xPro1.FL-x5, the MFI was found to be 7070 and the “PE+ %” value amounted to 75.9%. Further, in the experiment with Variant 6: xPro1.FL-x6, the MFI came to 44.1 and the “PE+ %” value came to 0.674%. In experiment [1], the MFI worked out at 6520 and the “PE+ %” value came out at 83.5%. Moreover, in experiment [2], the affinity, expressed as Kd, was 0.0106 nM; the koff amounted to 1.11e-05 s⁻¹; the kon was determined as 1.05e+06 M⁻¹ s⁻¹.
